Source: paper PMC6868389, “HER3-targeted protein chimera forms endosomolytic capsomeres and self-assembles into stealth nucleocapsids for systemic tumor homing of RNA interference in vivo” (Nucleic Acids Research, 2019)

Molecular target: the molecule itself
Assay: native gel or EMSA; native PAGE of purified HPK under neutral conditions (storage buffer 20 mM HEPES pH 7.45, 150 mM NaCl, 10% glycerol; pH 7.4), 4-15% gel, 25 mM Tris, 192 mM glycine pH 8.3

B1: HPK, HER3-targeted penton base chimera (heregulin ligand - linker - Ad5 penton base - decalysine) (other, human | adenovirus serotype 5 (Ad5))
chain: ELLPPRLKEMKSQESAAGSKLVLRCETSSEYSSLRFKWFKNGNELNRKNKPQNIKIQKKPGKSELRINKASLADSGEYMCKVISKLGNDSASANITIVESNEIITGMPASTEGAYVSSESPIRISVSTEGANTSSSTSTSTTGTSHLVKCAEKEKTFCVNGGECFMVKDLSNPSRYLCKCQPGFTGARCTENVPMKVQNQEKAEELYGGSGGSGSMRRAAMYEEGPPPSYESVVSAAPVAAALGSPFDAPLDPPFVPPRYLRPTGGRNSIRYSELAPLFDTTRVYLVDNKSTDVASLNYQNDHSNFLTTVIQNNDYSPGEASTQTINLDDRSHWGGDLKTILHTNMPNVNEFMFTNKFKARVMVSRLPTKDNQVELKYEWVEFTLPEGNYSETMTIDLMNNAIVEHYLKVGRQNGVLESDIGVKFDTRNFRLGFDPVTGLVMPGVYTNEAFHPDIILLPGCGVDFTHSRLSNLLGIRKRQPFQEGFRITYDDLEGGNIPALLDVDAYQASLKDDTEQGGGGAGGSNSSGSGAEENSNAAAAAMQPVEDMNDHAIRGDTFATRAEEKRAEAEAAAEAAAPAAQPEVEKPQKKPVIKPLTEDSKKRSYNLISNDSTFTQYRSWYLAYNYGDPQTGIRSWTLLCTPDVTCGSEQVYWSLPDMMQDPVTFRSTRQISNFPVVGAELLPVHSKSFYNDQAVYSQLIRQFTSLTHVFNRFPENQILARPPAPTITTVSENVPALTDHGTLPLRNSIGGVQRVTITDARRRTCPYVYKALGIVSPRVLSSRTFKKKKKKKKKK
notes: domain II, oligopeptide linker; domain III, adenovirus serotype 5 capsid penton base (PB); domain IV, carboxy-terminal decalysine tail (K10); About 92 kDa monomer; also called HerPBK10; HPK capsomere; not shown: His6, N-terminal, kept
  stoichiometry N: ≥ 5
